Measurements taken from patent US20120087916A1, “ANTI-ICAM-1 ANTIBODY, USES AND METHODS” (priority 2009, published 2012).
Entries after “also recorded” stand apart in the source; their conditions may differ.

Experiments:
[1] = test system: ARH-77 myeloma cells; test: SCID/ARH-77 myeloma xenograft model (early and established subcutaneous tumours); assay type: in vivo, SCID mice
Description: There were 8 to 10 animals per treatment group. • A and B: Early tumour model; treatment started 1 day after myeloma cell inoculation and continued until tumour volumes reached the ethical limit. (A) Tumour volume as a function of antibody dose. (B) Kaplan-Meier survival graph as a function of antibody dose. • (C) Established xenograft model; treatment with antibodies started when tumours reached a volume of approximately 100 mm^3. […] Statistical significance was calculated relative to control antibody treatment using Student t test (tumour volume) or the log-rank test (mouse survival) using Graphpad Prism software. Statistical significance was considered for *p<0.05, **p<0.01, and ***p<0.001. Graphs illustrate representative experiments out of several performed.
Blood samples were collected at termination and analyzed by ELISA to determine BI-AB serum trough levels. Trough BI-AB serum concentrations were plotted as a function of anti-tumor activity and fitted using five parameter log-log curve and XLfit software (IDBS, Guildford, United Kingdom).

[2] = BI-AB serum trough levels by ELISA in the ARH-77/SCID tumour model; assay type: in vivo, SCID mice; conditions: corresponds to 0.004 mg/kg dose; from fitted five parameter log-log curve
Description: (§1) FIG. 5: Calculation of MABEL: determination of BI-AB IC10 value using in vivo pharmacology assay and in vitro correlation with binding. • (A) Tumour cells were injected subcutaneously into the left flank of SCID mice (n=8 per group). Mice received twice-weekly intraperitoneal injections with BI-AB at a range of 20 to 0.002 mg/kg (until control group had to be sacrificed). […] IC10=concentration at which there is 10% inhibition; ELISA=enzyme-linked immunosorbent assay; MABEL=minimum anticipated biological effect level. • (D) ARH-77myeloma cells were injected subcutaneously into the left flank of SCID mice (n=8 per group). Mice received twice-weekly intravenous injections of BI-AB at 0.002-20 mg/kg until control group had to be sacrificed. Blood samples were collected at termination and analyzed by ELISA to determine BI-AB serum trough levels. Trough BI-AB serum concentrations were plotted as a function of anti-tumor activity and fitted using five parameter log-log curve and XLfit software (IDBS, Guildford, United Kingdom).
Mean BI-AB serum trough concentrations of different mouse dose groups were determined by ELISA analysis of blood samples collected at different time-points during the course of in vivo experimentation. […]

[3] = biological target: T1, ICAM-1 epitopes on ARH-77 myeloma cells (Homo sapiens, UniProt P05362); test: Receptor occupancy / binding in vitro using human tumour cells
T1 construct: endogenous in cells; host or cells: ARH-77 myeloma cells
T1 sequence (P05362 28-532): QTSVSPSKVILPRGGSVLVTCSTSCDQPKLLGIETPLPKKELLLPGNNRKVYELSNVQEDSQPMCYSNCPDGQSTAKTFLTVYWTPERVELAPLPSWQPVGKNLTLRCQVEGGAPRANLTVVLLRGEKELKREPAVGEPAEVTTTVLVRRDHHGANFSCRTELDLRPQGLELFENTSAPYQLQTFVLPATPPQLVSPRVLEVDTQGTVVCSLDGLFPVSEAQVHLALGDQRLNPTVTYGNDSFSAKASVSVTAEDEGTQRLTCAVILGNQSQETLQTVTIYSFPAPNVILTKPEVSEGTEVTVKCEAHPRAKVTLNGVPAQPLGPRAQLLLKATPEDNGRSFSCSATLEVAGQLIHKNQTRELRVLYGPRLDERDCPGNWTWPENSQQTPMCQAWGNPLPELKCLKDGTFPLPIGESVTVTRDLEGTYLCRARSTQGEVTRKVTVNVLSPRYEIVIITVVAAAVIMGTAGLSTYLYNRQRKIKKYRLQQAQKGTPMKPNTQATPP
Description: as §1
Receptor occupancy has been examined in vitro using human tumour cells and the BI-AB level corresponding to binding saturation has been identified. It is assumed that at this concentration, ICAM-1 epitopes on cells of the vascular compartment should be saturated, and any side effects related to the physiological function of ICAM-1 are expected to be […]. […]

[4] = test system: NCI-H929, EJM, RPMI-8226 myeloma cells; test: SCID xenografts of CD20-negative ICAM-1-positive myeloma cell lines; assay type: in vivo, SCID mice; conditions: CD20-negative ICAM-1-positive lines, 2 mg/kg twice-weekly intraperitoneal from Day 1
Description: (§2) Antibody treatment with 2 mg/kg BI-AB or control IgG1 was started at Day 1 and was continued on a twice-weekly intraperitoneal dosing regimen. Mice were sacrificed when tumour sizes reached the ethical limit. […] Statistical significance was calculated relative to control antibody treatment using Student t test. Statistical significance was considered for *p<0.05, **p <0.01, and ***p<0.001. ICAM-1-intercellular adhesion molecule 1; SCID=severe combined immunodeficiency

[5] = test system: OPM-2 myeloma cells; test: SCID xenograft of ICAM-1-negative myeloma cell line; assay type: in vivo, SCID mice; conditions: ICAM-1-negative OPM-2; 2 mg/kg twice-weekly intraperitoneal from Day 1
Description: as §2

[6] = test system: human multiple myeloma tumour cells; test: Disseminated tumour model (advanced experimental multiple myeloma), intravenous tumour cell inoculation; assay type: in vivo, SCID mice
Description: SCID mice were irradiated 5 days before intravenous tumour cell inoculation. Animals received intravenous injections with antibody at 2 mg/kg or bortezomib (Velcade) at 0.5 mg/kg on Days 7, 10, 14, and 17 (as indicated by arrows in graph). There were 8 mice per treatment group. Statistical significance was calculated using Log-rank Graphpad Prism software. Significance was determined at *p<0.05, **p<0.01, and ***p<0.001.
BI-AB anti-myeloma activity has additionally been investigated in a disseminated tumour model (a well-established experimental model of human multiple myeloma) at an independent contract research organization. […] After 190 days, when the experiment was terminated, 25% of BI-AB-treated mice were still alive.

[7] = test system: B-cell lymphoma; test: SCID/B-cell lymphoma tumour xenograft models; assay type: in vivo, SCID mice; conditions: prophylactic and established models; data not shown
[8] = Pharmacokinetics in the rat, single IV bolus injection; assay type: in vivo
Description: A pharmacokinetic (PK) study of BI-AB in the rat has been performed. In this study, the doses of the antibody tested were in such excess in relation to the target antigen concentration that any binding to the target antigen would not be of significant importance for the PK profile. This fact serves as the rationale for performing a PK study in a species where the antibody will not bind to the target antigen. The pharmacokinetics of BI-AB in the rat has been investigated following a single IV bolus injection at dose levels of 0.5, 2.5 and 10 mg/kg.

[9] = Pharmacokinetics in the cynomolgus monkey, escalation dose toxicity study; assay type: in vivo, cynomolgus monkeys; conditions: 1-100 mg/kg
Description: • Table 1: BI-AB levels associated 10, 50, and 90% anti-tumour activity correlated with levels of receptor binding. • a—determined in the most sensitive setting in the ARH-77/SCID in vivo tumour model, i.e., early antibody administration. • b—determined in the advanced ARH-77/SCID in vivo tumour model (mice carrying established tumours) • Table 2: Single dose pharmacokinetics of BI-AB following single IV bolus injection • Table 3: Pharmacokinetics of BI-AB following single escalating IV bolus injection The pharmacokinetics of BI-AB was investigated at dose levels of 1, 2, 8, 20, 50, and 100 mg/kg in the escalation dose toxicity study in cynomolgus monkeys. Samples for plasma analysis were taken after all dose levels. […] Cmax were generally obtained at the first sampling time of 0.5 hours post-dose. However at 100 mg/kg the Cmax was reached 8 hours post-dose. Serum concentrations declined in a generally bi-phasic manner with an elimination time ranging from 69 to 264 hours. […] There was some carry-over of the compound between treatments due to the long half-life of BI-AB.
The pharmacokinetics of BI-AB was investigated at dose levels of 1, 2, 8, 20, 50, and 100 mg/kg in the escalation dose toxicity study in cynomolgus monkeys. Samples for plasma analysis were taken after all dose levels.
Cmax were generally obtained at the first sampling time of 0.5 hours post-dose. However at 100 mg/kg the Cmax was reached 8 hours post-dose. Serum concentrations declined in a generally bi-phasic manner with an elimination time ranging from 69 to 264 hours. […] There was some carry-over of the compound between treatments due to the long half-life of BI-AB.

[10] = biological target: ICAM-1 (Homo sapiens, UniProt P05362); test: Binding of BI-AB to ICAM-1
Chain of ICAM-1 (P05362 28-532): as above
Description: BI-AB is a fully human immunoglobulin G subtype 1 (IgG1) monoclonal antibody expressed in Chinese Hamster Ovarian (CHO) cells. The BI-AB antibody has a theoretical molecular weight of approximately 144 kDa based on the predicted amino acid sequence. Mass spectrometry, peptide mapping and SDS-PAGE will determine molecular mass and primary and secondary structures. The biological activity is quantified using an ELISA assay, which quantitatively measures the binding of the BI-AB to ICAM-1.

[11] = single IV bolus 0.5, 2.5 and 10 mg/kg

B1: BI-AB: fully human, high-affinity IgG1 mAb specific for ICAM-1 generated from the n-CoDeR human antibody fragment library (antibody, V domains shown)
VH: EVQLLESGGGLVQPGGSLRLSCAASGFTFSNAWMSWVRQAPGKGLEWVAFIWYDGSNKYYADSVKGRFTISRDNSKNTLYLQMNSLRAEDTAVYYCARYSGWYFDYWGQGTLVTVSS
VL: QSVLTQPPSASGTPGQRVTISCTGSSSNIGAGYDVHWYQQLPGTAPKLLIYDNNNRPSGVPDRFSGSKSGTSASLAISGLRSEDEADYYCQSYDSSLSAWLFGGGTKLTVLG
[1]; SCID/ARH-77, prophylactic and established xenograft models, Rituximab e.g. 20 mg/kg
  efficacy and potency compared with Rituximab (reducing tumour growth, prolonging survival): more efficacious and potent compared with Rituximab; also recorded: comparable or improved activity
[1]; SCID/ARH-77 xenograft, twice-weekly intraperitoneal, doses 0.016, 0.16, 1.6 (16) mg/kg
  in vivo anti-myeloma efficacy (tumour volume, survival): significant in vivo anti-myeloma efficacy and potency
[1]; early antibody administration, twice-weekly dosing regimen
  MABEL/IC10 dose (10% inhibition of tumour growth): 4 µg/kg
[2]
  steady state trough serum concentration at IC10 inhibition of tumour growth: 0.028 µg/mL
[3]; at 28 ng/mL BI-AB
  ARH-77 ICAM-1 epitopes occupied by antibody in vitro: approximately 30%
[3]; in vitro
  binding to ARH-77 myeloma cells: binds to ARH-77 myeloma cells in a dose-dependent manner
[4]
  anti-myeloma activity (tumour growth): significant and ICAM-1-dependent anti-myeloma activity
[5]
  effect on tumour growth: no effect on tumour growth; also recorded: did not affect tumour growth
[6]; 2 mg/kg intravenous Days 7, 10, 14, 17 (or start 1 day) after tumour cell inoculation
  survival compared with control-treated mice: confers protection against advanced experimental multiple myeloma; also recorded: significantly prolonged survival
[6]; BI-AB 2 mg/kg vs bortezomib (Velcade) 0.5 mg/kg
  benchmark against Bortezomib: superior
[6]; after 190 days, when the experiment was terminated
  treated mice still alive: 25%
[7]
  anti-lymphoma activity: significant anti-lymphoma activity
[8]; single IV bolus
  systemic exposure versus sex: generally independent of sex
[8]; [11]
  clearance and volumes of distribution (Vz and Vss) versus dose: dose independent
  systemic exposure versus dose: increased roughly in proportion to dose
  time of maximum serum concentrations: within the first hour
[9]
  systemic exposure versus dose: increased roughly in proportion to the dose
  systemic exposure versus gender: without gender deviations
  volumes of distribution versus dose: no dose-dependency
[10]
  affinity and specificity of binding to ICAM-1: binds with high affinity and specificity to ICAM-1
